The record followed here is article PMC3427744.

One assay deals with commercial rituximab. Briefly: SPR. In general terms: In SPR one partner is held on a chip, and binding of the other changes the refractive index at the surface.
Assay [1] addresses non-fucosylated G2 glycoform of rituximab (10). The assay can be described thus: SPR.

“FcγRIIIa-F158 (from UniProt P08637 17-254) (receptor)”: the Kd (as a rule, a measure of binding affinity in units of concentration) in the assay with commercial rituximab came to 1040 nM; in assay [1], 123 nM.

Regarding “FcγRIIb (from UniProt P31994 43-310) (receptor)”, the Kd with commercial rituximab is 2000 nM.
